Laboratory results as given in patent publication US20130338339A1.

Tests used:
[1] = biological target: polyclonal human IgG (Gammanorm, Octapharma) (human); test: gradient elution pH 6 to pH 3 (0.1 M citrate) from a column of immobilised ligand, pH at peak apex
[2] = biological target: polyclonal human IgG (Gammanorm, Octapharma) (human); test: gradient elution pH 6 to pH 3 from a column of immobilised ligand; polyclonal IgG (Gammanorm) shows the biggest difference
[3] = biological target: polyclonal human IgG (Gammanorm, Octapharma) (human); test: breakthrough on a column of immobilised ligand, 1 mg/ml IgG, pH 7.4, residence time 2.4 min, ligand density 9.6 mg/ml

elution pH, hIgG (first peak) [1]: 5.11 pH | elution pH, hIgG (second peak) [1]: 4.61 pH | increase in elution pH compared to Z4 [2]: > 1 >pH unit | Qb10% (dynamic binding capacity at 10% breakthrough) [3]: 36.4 mg/ml resin | Qb80% (dynamic binding capacity at 80% breakthrough) [3]: 65 mg/ml resin
Substance: Mutant Z(H18S)4: ligand tetramer containing four copies of protein Z, each containing the H18S substitution (designed binder)
